± gives the uncertainty stated by the source.
Experiment: protein stability index of a GFP-peptide fusion (yeast GPS) (PSI 1-4); higher = more stable; sorted into four equal gates, so the index is relative within each strain
Details: san1∆
Method in brief: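 Tiled yeast protein peptides of 17 residues were each joined downstream of GFP, on plasmids that also express Cherry. The pooled library was maintained in yeast, and mid-log cultures in leucine-free medium were sorted into four equal gates on the GFP/Cherry ratio. Plasmids from every gate were amplified by PCR and sequenced on Illumina, with barcodes linking reads to strains. The protein stability index of a peptide is its gate-number-weighted read frequency summed over the gates.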

Row | Sequence | protein stability index
1 | VYYSKRGFKVGLVCADT [SRP54] | 2.19 ± 0.098
2 | WDLLPEPIRFLPNQFPL [SWI1] | 2.26 ± 0.054
3 | WDLSVEDALYLGKRSIL [PRE2] | 3.17 ± 0.064
4 | WGHPTRMLLNLCKSATT [BRR2] | 1.75 ± 0.066
5 | WIVVLPWFWLLPLWHLL [POP1] | 1.14 ± 0.13
6 | WKRQISYFLKLLGNCYS [SRB8] | 1.69 ± 0.071
7 | WNKRDFMAFINACAKYG [ISW2] | 1.34 ± 0.26
8 | WQYIVIDEAHRIKNEQS [ISW2] | 1.23 ± 0.11
9 | WREQLRNRDIALFQPPN [ROX3] | 2.73 ± 0.059
10 | WRKDAQGNYPTTSYIKE [DPB4] | 2.92 ± 0.069
11 | WSFDLPEMSNLYRLSTP [PRP8] | 2.59 ± 0.038
12 | WTSTQRHHWQYTKASLA [SSN8] | 1.42 ± 0.16
13 | WVQLVQIIVTDGKLEPS [YJL039C/NUP192] | 1.19 ± 0.098
14 | WVYKTKGDGMTSAVASI [RPN1] | 2.57 ± 0.23
15 | WYKVAKNVGNKSPEQCI [SWI3] | 3.07 ± 0.093
16 | YAKDILQKEFLPHITQL [RPB2] | 1.4 ± 0.065
17 | YALFLKALRRKIYINLA [SSN2] | 1.35 ± 0.12
18 | YATKLSKFTKIPPTFDK [MED4] | 3.29 ± 0.08
19 | YCDSMGRPQRKMMSFQA [RPB5] | 3.48 ± 0.058
20 | YCHEKELTIIKNPRVTK [CSN9] | 2.14 ± 0.2
21 | YCKGKTCRKHTQHKVTQ [RPL42A] | 2.54 ± 0.12
22 | YCSGNIYDFHKMENLMR [YJL039C/NUP192] | 2.52 ± 0.05
23 | YDGVERVSLQDIKDFAD [QCR2] | 2.5 ± 0.076
24 | YDLMAPNGHISTKKIQV [YMR129W/POM152] | 1.5 ± 0.085
25 | YDLNFKLRETLVKIDDL [SMC1] | 3.01 ± 0.13
26 | YDTTPLLDTNSLEENAM [SKI6] | 2.97 ± 0.15

Row | Sequence | protein stability index
27 | YENKQLYFPDDYPFTQL [POP1] | 2.93 ± 0.043
28 | YESRNVAKRRFEYSKYR [RRP6] | 3.29 ± 0.041
29 | YFFYASRPEYSCTFWSD [YJL039C/NUP192] | 1.31 ± 0.14
30 | YGFSNKEYISRLWHTLK [SNF5] | 2.39 ± 0.2
31 | YGNPTSKESWRYDWYQP [RTT102] | 2 ± 0.071
32 | YGTRPLVLPPVVTSSVA [SNF2] | 1.76 ± 0.12
33 | YGYFSVGKRVPIVEDRR [SIR4] | 2.16 ± 0.13
34 | YHLLNYDPIKRIDAFNA [SSN3] | 1.6 ± 0.074
35 | YHNKHMMCDFGTGNNNK [DIB1] | 2.73 ± 0.049
36 | YHSGRLLIQGPKASSAK [ITC1] | 3.2 ± 0.059
37 | YILANHYLSRVLSDQVG [YJL039C/NUP192] | 2.72 ± 0.07
38 | YILRYLHANGASFFFMV [COB] | 1.39 ± 0.081
39 | YITARIMAKRPFDKKSN [FAS1] | 1.96 ± 0.12
40 | YKEQIIQGFYWAVKEGP [SNU114] | 2.23 ± 0.09
41 | YKMVQEQLSKQRDLYKR [SMC2] | 2.45 ± 0.16
42 | YKNLDRGFSKDLKSKAD [RRP6] | 3.31 ± 0.065
43 | YKPLIEERMGQIENLNE [SMC4] | 3.46 ± 0.071
44 | YKQAMNETSEQLVPIRL [SNF5] | 3.08 ± 0.22
45 | YKVDNMTRILPQQSRYI [RPN2] | 2.5 ± 0.1
46 | YKVMHQIRACKDLKHII [PRP8] | 2.21 ± 0.052
47 | YLAENPDPNFENSIGYN [PRP8] | 3.12 ± 0.088
48 | YLERIELSFYILYSFKL [YML103C/NUP188] | 1.2 ± 0.08
49 | YLIVAGVDPTGSHLFSI [PUP1] | 1.94 ± 0.14
50 | YLLASLKDSKDFDESLK [RPN9] | 2.82 ± 0.099
51 | YLLENNQVGTDELILPL [YDL116W/NUP84] | 3.07 ± 0.069
52 | YLMDSKNVRTRIKLATT [RRI1] | 1.61 ± 0.099

Row | Sequence | protein stability index
53 | YMDSMNEKVAVMRNTYN [GAL11] | 2.35 ± 0.069
54 | YNGRGARERKTATYNDN [SNF2] | 2.69 ± 0.074
55 | YNVCDTSKSLVKRYRLA [SIN4] | 2.58 ± 0.062
56 | YPFDKLESWWLVLGEVS [BRR2] | 3.46 ± 0.11
57 | YPFLLSFLGEAKSMAFL [YML103C/NUP188] | 2.29 ± 0.11
58 | YPFVTNDDIEWMLSICV [YJR042W/NUP85] | 2.67 ± 0.059
59 | YQKNKPYPKSRYNRAVP [RPL10] | 3.06 ± 0.04
60 | YRLMIKRLNFSFVGDYM [GRR1] | 1.53 ± 0.095
61 | YSAAKKIPDTYTANTSA [YAR002W/NUP60] | 2.2 ± 0.077
62 | YSDIGGLESQIQEIKES [RPT2] | 1.88 ± 0.096
63 | YSLHQIRKDPNNLSNQL [CSE2] | 2.65 ± 0.054
64 | YSRILKSMGRKCFDDIE [YCG1] | 2.92 ± 0.21
65 | YSSKPYKVDNMTRILPQ [RPN2] | 2.62 ± 0.082
66 | YTNSVELRSLSKKDFKI [YMR129W/POM152] | 2.32 ± 0.078
67 | YTRYLDRIYMLFHFEED [PRP8] | 1.5 ± 0.12
68 | YVIKALQSLTSKGYVKT [RPS10A] | 1.39 ± 0.17
69 | YVKAVSDKAQLNVVMKN [SMC4] | 1.6 ± 0.11
70 | YVLYAKIVVLSRTGPVF [RRP43] | 1.11 ± 0.16
71 | YVSALKRINKFLDSVHK [POP7] | 2 ± 0.068
72 | YVSQIRKHKRVSPNAAP [YAR002W/NUP60] | 2.53 ± 0.085
73 | YVTKPMVNESDGVTHAL [RPB2] | 2.94 ± 0.081
74 | YWTQYLGLFIHKISFSG [YJL039C/NUP192] | 1.59 ± 0.1
75 | YYGCLENDHERGFFHLN [CSN12] | 3.21 ± 0.047
76 | YYKNFHNSVKRYQIMLP [SNM1] | 1.33 ± 0.11
77 | YYQRLRHMVDDKIHARA [RPB2] | 3.12 ± 0.12
78 | YYVPYSKLMPVLKSSVY [RPC82] | 1.57 ± 0.098

Same assay, conditions: ubr1∆

Row | Sequence | protein stability index
79 | VYYSKRGFKVGLVCADT [SRP54] | 2.5 ± 0.054
